# Test results taken from patent US20230227512A1.
# What was measured:
# [1] = target: BG505 SOSIP.664 trimer+sCD4 complex (HIV-1 strain BG505; human) (UniProt P01730); assay: SPR read-out on captured 3074 IgG of trimer incubated with sCD4
# [2] = target: BG505.SOSIP.664.201C-433C HIV-1 Env ectodomain trimer (HIV-1 strain BG505); assay: SPR, single-cycle kinetics
Substance,t1/2 of CD4-induced appearance of binding [1] [h],fold faster off-rate relative to parent SOSIP.664 [2] [fold],fold reduction in KD (affinity) relative to SOSIP.664 [2] [fold]
3074 antibody,4.2,–,–
soluble CD4 (sCD4) (from UniProt P01730 26-208) (receptor),–,10,10
